Data on two compounds can be found in US20050025777A1, “Particle-mediated delivery of antigens” (priority 1994, published 2005).

Where “and” joins values, the source holds several entries; their conditions need not be identical. Equal values may be shown once.

A short description of series [1]: Induction of cytotoxic cellular response by HIV gp 120 peptide. The note with it: in vivo.
Series [2] deals with Human Alpha 1 Anti-Trypsin Protein (Homo sapiens, UniProt P01009). As to the kind of experiment: Antibody responses to human alpha 1 anti-trypsin protein after immunization. In kind it is in vivo, mice.
Setting [3] is: Accell (no adjuvant), prime + 1 boost.
The mark [4] stands for this setting: Accell (no adjuvant), prime only.

Human Alpha 1 Anti-Trypsin Protein, sequence (P01009 25-418): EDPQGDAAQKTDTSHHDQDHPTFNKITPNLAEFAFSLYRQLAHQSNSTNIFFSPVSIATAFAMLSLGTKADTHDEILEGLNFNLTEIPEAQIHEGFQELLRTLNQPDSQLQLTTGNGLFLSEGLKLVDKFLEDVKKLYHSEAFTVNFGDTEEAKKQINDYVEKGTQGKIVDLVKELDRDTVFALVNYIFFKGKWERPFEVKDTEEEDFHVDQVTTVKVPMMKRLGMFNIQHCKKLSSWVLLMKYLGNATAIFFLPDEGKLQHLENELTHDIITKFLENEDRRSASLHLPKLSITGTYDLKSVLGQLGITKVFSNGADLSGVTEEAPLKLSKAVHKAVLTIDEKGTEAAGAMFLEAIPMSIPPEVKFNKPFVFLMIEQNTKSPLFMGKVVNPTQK

For `CC[C@H](C)[C@H](NC(=O)[C@@H](NC(=O)[C@@H](NC(=O)[C@H](Cc1ccccc1)NC(=O)[C@H](C)NC(=O)[C@H](CCCNC(=N)N)NC(=O)CNC(=O)[C@@H]1CCCN1C(=O)CNC(=O)[C@H](CCCNC(=N)N)NC(=O)[C@H](CCC(N)=O)NC(=O)[C@@H](NC(=O)[C@@H](N)CCCNC(=N)N)[C@@H](C)CC)C(C)C)[C@@H](C)O)C(=O)NCC(=O)N[C@@H](CCCCN)C(=O)O` [HIV gp 120], in series [1], the “regimen required to induce a cytotoxic cellular response” value is given as “a single dose, i.e. the prime, is all that is required”.
With “Human Alpha 1 Anti-Trypsin Protein: Human Alpha 1 Anti-Trypsin Protein used as immunogen”, the “number with detectable antibody/total number tested” value in series [2] (setting [3]) is listed as 4/4; in series [2] (setting [4]), 4/4; in series [2] (injection with Freund's adjuvant, prime + 1 boost), 4/4; in series [2] (injection with Freund's adjuvant, prime only) it was 4/4. Moreover, the reciprocal antibody titers in series [2] (setting [3]) was 9500 and 6500 and 5500; in series [2] (setting [4]), 350 and 375 and 210 and 250.
